Results taken from PMC4678846.

Substrate: CC(C)(C)OC(=O)NCCCC[C@H](N)C(=O)O
Assay: purified protein
Conditions: wild-type tRNA^Pyl, 10 mM ATP, 10 mM MgCl2, pH 7.2, 37 °C, apparent, amino acid not given, BocK inferred

B1: MbPylRS (Methanosarcina barkeri str. Fusaro) (protein)
chain: MDKKPLDVLISATGLWMSRTGTLHKIKHYEVSRSKIYIEMACGDHLVVNNSRSCRTARAFRHHKYRKTCKRCRVSDEDINNFLTRSTEGKTSVKVKVVSAPKVKKAMPKSVSRAPKPLENPVSAKASTDTSRSVPSPAKSTPNSPVPTSAPAPSLTRSQLDRVEALLSPEDKISLNIAKPFRELESELVTRRKNDFQRLYTNDREDYLGKLERDITKFFVDRDFLEIKSPILIPAEYVERMGINNDTELSKQIFRVDKNLCLRPMLAPTLYNYLRKLDRILPDPIKIFEVGPCYRKESDGKEHLEEFTMVNFCQMGSGCTRENLESLIKEFLDYLEIDFEIVGDSCMVYGDTLDIMHGDLELSSAVVGPVPLDREWGIDKPWIGAGFGLERLLKVMHGFKNIKRASRSESYYNGISTNL
Km: 1030 ± 50 µM
